Experiment: yeast display, Sf9 membrane polyspecificity reagent, FACS + sequencing; frameworks hold sequencing errors
How it was run: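 Polyreactivity labels are assigned by the sorting gate from which each nanobody was recovered. The gates were low and high (top ~1%), set on anti-HA fluorescence for expression and streptavidin fluorescence for reagent binding. Before sorting, galactose-induced (36–48 hours) yeast display cells were stained for 1 hour at 4 °C with 10% biotinylated, detergent-solubilized Sf9 membrane reagent.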
For “QVQLVESGGGLVQAGGSLRLSCAASGSIFYVYGMGWYRQAPGKERELVAAITRSGGIKYYADSVKGRFTISRDNAKNTVYLLMNSLKPEDTAVYYCAALSYRYTDKVVYWGQGTQVTVSS”, the “polyreactivity (PSR sort gate)” value was “low polyreactivity”.
In the case of “QVQLVESGGGLVQAGGSLRLSCAASGSIFYVYVMGWYRQAPGKERELVAAIDTGGGDTYYADSVKGRFTISRDNAKNTVYLQMNSLKPEDTAVYYCAAELYDYGDLYYSEYDYWGQGTQVTVSS”, the “polyreactivity (PSR sort gate)” value is reported as “low polyreactivity”.
With “QVQLVESGGGLVQAGGSLRLSCAASGSIFYVYVMGWYRQAPGKERELVAGISYRGGSTYYADSVKGRFTISRDNAKNTVYLQMNSLKPEDTAVYYCNAGVWTYWHIEMDYWGQGTQVTVSS” the “polyreactivity (PSR sort gate)” value was “low polyreactivity”.
With “QVQLVESGGGLVQAGGSLRLSCAASGSIFYWNTMGWYRQAPGKERELVAAISYSGGSTYYADSVKGRFTISRDNAKNTVYLQMNSLKPEDTAVYYCAAKYYNRFYYWGQGTQVTVSS” the “polyreactivity (PSR sort gate)” value was “high polyreactivity”.
With “QVQLVESGGGLVQAGGSLRLSCAASGSIFYWYAMGWYRPAPGKERELVAAITSSSGRTRYADSVKGRFTISRDNAKNTVYLQMNSLKPEDTAVYYCAAGRWGSYYTPRPYGYWGQGTQVTVSS” the “polyreactivity (PSR sort gate)” value was “high polyreactivity”.
With “QVQLVESGGGLVQAGGSLRLSCAASGSIFYWYAMGWYRQAPGKEREFVAAISRSDGSTYYADSLKRRFTISRDNAKNTVYLEMNRLKPEDTAVYYCAAERYYFPRSYRYGYWGQGTQVTVSS” the “polyreactivity (PSR sort gate)” value was “low polyreactivity”.
With “QVQLVESGGGLVQAGGSLRLSCAASGSIFYWYAMGWYRQAPGKERELVAGITGRGGSTYYADSVKGRFTISRDNAKNTVYLQMNSLKPEDTAVYYCAARYTRWRYNYKDYDYWGQGTQVTVSS” the “polyreactivity (PSR sort gate)” value was “high polyreactivity”.
With “QVQLVESGGGLVQAGGSLRLSCAASGSIFYYNAKGWYRQAPGKERELVAGIRRSGDSTYYADSVKGRFTISRDNAKNTVYLQLNRLKPEDTAVYYCAADRVYEASQGYTYFDYDYWGQGTQVTVSS” the “polyreactivity (PSR sort gate)” value was “low polyreactivity”.
For “QVQLVESGGGLVQAGGSLRLSCAASGSIFYYNAMGWYRQAPGKERELVAAISRSGGSTYYADSVKGRFTISRDNAKNTVYLQMNSLKPEDTAVYYCAARPNFTPYEYGYWGQGTQVTVSS”, the “polyreactivity (PSR sort gate)” value was “low polyreactivity”.
With “QVQLVESGGGLVQAGGSLRLSCAASGSIFYYNAMGWYRQAPGKERELVAAISWGDGITYYADSVKGRFTISRDNAKNTVYLQMNSLKPEDTAVYYCAVDYYYLAFEYWGQGTQVTVSS” the “polyreactivity (PSR sort gate)” value was “high polyreactivity”.
With “QVQLVESGGGLVQAGGSLRLSCAASGSIFYYNAMGWYRQAPGKERELVAAITSGGSTHYADSVKGRFTISRDNAKNTVYLQMNSLKPEDTAVYYCAADVWYKYHRSAIIVEFDYWGQGTQVTVSS” the “polyreactivity (PSR sort gate)” value was “low polyreactivity”.
For “QVQLVESGGGLVQAGGSLRLSCAASGSIFYYNGMGWYRHAPGKERELVASISRGGGTNYADSVKGRFTISRDNAKNTVYLQMNSLKPEDTAVYYCNARYPRSSPFGYWGLGTQVTVSS”, the “polyreactivity (PSR sort gate)” value was “high polyreactivity”.
For “QVQLVESGGGLVQAGGSLRLSCAASGSIFYYNTMAWYRQAPGKERELVAAIRQRGTSTYYADSVKGRFTISRDNAKNTVYLLMISLKPEDTAVYYCAAVTRGQSAYSYDYWGQGTKVTVSS”, the “polyreactivity (PSR sort gate)” value was “high polyreactivity”.
For “QVQLVESGGGLVQAGGSLRLSCAASGSIFYYNTMGWSRQSPGKERELVAAINTSGGSTYYADSVKGRFTISRDNATNTDYVQLNSLKPEDTAVYYCAVRYRYRFVAKGYWGQGTQVTVSS”, the “polyreactivity (PSR sort gate)” value was “high polyreactivity”.
With “QVQLVESGGGLVQAGGSLRLSCAASGSIFYYNTMGWYRQAPGKERELVAAITSTGRTNYADSVKGRFTISRDNAKNTVYLQMNSLKPEDSAVYYCAKRRFGDGDYWGQGTQVTVSS” the “polyreactivity (PSR sort gate)” value was “low polyreactivity”.
With “QVQLVESGGGLVQAGGSLRLSCAASGSIFYYYAMGLYRQAPGKERELVAAITRRGGNTYYADSVKGRFTISRDNAKNTVYLQMNSLKPEDTAVYYCNAPGFAWYTTKYDYWGQGTQVTVSS” the “polyreactivity (PSR sort gate)” value was “low polyreactivity”.
With “QVQLVESGGGLVQAGGSLRLSCAASGSIFYYYAMGWYRQAPGKERELVAAITYSGGSTHYADSVKGRFTISRDNAKNTVYLQMNSLKPDDTAVFYCAVYYRSHSGSRIYYWGQGTQVTVSS” the “polyreactivity (PSR sort gate)” value was “high polyreactivity”.
In the case of “QVQLVESGGGLVQAGGSLRLSCAASGSIFYYYAMGWYRQAPGKERELVAGITVSGGRTYYADSVKGRFTISRDNAKNTVYLQMNSLKPEDTAVYYCAADGRAKYDYWGQGTQVTVSS”, the “polyreactivity (PSR sort gate)” value is reported as “low polyreactivity”.
For “QVQLVESGGGLVQAGGSLRLSCAASGSIFYYYAMGWYRQAPGKVRELVASISSGGRTYYADSVKGRFTISRDNAENTLYLQLNSLKPEDSAVYYCAVEVWWWEGDYDYWGLGTQVTVSS”, the “polyreactivity (PSR sort gate)” value was “high polyreactivity”.
In the case of “QVQLVESGGGLVQAGGSLRLSCAASGSIFYYYTMGWYRQAPGKERELVAAITWSGSTYYADSVKGRFTISRDNAKNTVYLQMNSLKPEDTAVYYCNADALIAAYKYFPYTYRFNYWGQGTQVTVSS”, the “polyreactivity (PSR sort gate)” value is reported as “low polyreactivity”.
With “QVQLVESGGGLVQAGGSLRLSCAASGSIGVYAMGWYRQSPGKERELVAGISRSGSSTFFADSVKGRFTISRDNAKNTVYLQMNSLKPEDTAVYYCTAYTYNYRQGSEYYYWGQGTQVTVSS” the “polyreactivity (PSR sort gate)” value was “high polyreactivity”.
In the case of “QVQLVESGGGLVQAGGSLRLSCAASGSIGYMGWYRQAPGKERELVAFITSSGGGTYYADSVKGRFTISRDNAKNTVYLQMNSLKPEDTAVYYCATKSSAGYDYWGQGTQVTVSS”, the “polyreactivity (PSR sort gate)” value is reported as “low polyreactivity”.
With “QVQLVESGGGLVQAGGSLRLSCAASGSIIAGYAMGWYRQAPGKERELVAAISQRGTSTYYADSVKGRFTISRDIAKNTVYLQMNSLKPEDTSVYYCAARVVSRMDYWGQGTQVTVSS” the “polyreactivity (PSR sort gate)” value was “high polyreactivity”.
With “QVQLVESGGGLVQAGGSLRLSCAASGSIIDLNAMGWYRQAPGKERDLVAAISSGGGTYYADSVKGRFTISRDNAKNNVYLQMNSLKPEDTAVYYCAAIGYRVYRYYRGRTYDYWGQGTQVTVSS” the “polyreactivity (PSR sort gate)” value was “high polyreactivity”.
In the case of “QVQLVESGGGLVQAGGSLRLSCAASGSIIFGYGMGWYRQAPGKERELVATITTSGGTYYADSVKGRFTISRDNAKNSVYLQMNSLKPEDTAVYYCAATAAALDGNTIMYYWGQGTQVTVSS”, the “polyreactivity (PSR sort gate)” value is reported as “low polyreactivity”.
With “QVQLVESGGGLVQAGGSLRLSCAASGSIIFLYAMGWYRQAPGKERELVASISTSGTTITYYADSVKGRFTISRDNAKNTVYLQMNSLKPEDTAVYYCAADTLYYPYDYWGQGTQVTVSS” the “polyreactivity (PSR sort gate)” value was “low polyreactivity”.
For “QVQLVESGGGLVQAGGSLRLSCAASGSIIGDNAMGWYRPAPGKERELVAAITGGDSTYYADSVKGRFTISRDNAKNTVYLQMNSLKPEDTAVYYCNADRFRGRTVDGDYWGQGTQVTVSS”, the “polyreactivity (PSR sort gate)” value was “low polyreactivity”.
With “QVQLVESGGGLVQAGGSLRLSCAASGSIIGYYAMGWYRQAPGKDRELVAAISWSDGSTYYAVSVKGRFTISRDNAKNTVFLQMNSLKPEVTAVYYCAARFTPYITSDDGHYDYWGQGTQVTVSA” the “polyreactivity (PSR sort gate)” value was “low polyreactivity”.
With “QVQLVESGGGLVQAGGSLRLSCAASGSIIGYYAMGWYRQAPGKERELVAAITASGGSTYYADSVKGRFTISRDNAKNTVYLQMNSLKPEDTAVYHCAADRIGGPGSYLYDYWGQGTQVTVSS” the “polyreactivity (PSR sort gate)” value was “low polyreactivity”.
With “QVQLVESGGGLVQAGGSLRLSCAASGSIIGYYAMGWYRQAPGKERELVAAITASGGSTYYADSVKGRFTISRDNAKNTVYLQMNSLKPEDTAVYYCAAGTHTDYGRYYYWGQGTQVTVSS” the “polyreactivity (PSR sort gate)” value was “low polyreactivity”.
With “QVQLVESGGGLVQAGGSLRLSCAASGSIILVYAMGWYRQAPGKERELVAGINSSGTSTYADSVKGRFTISRDNAKNTVYLQMNSLKPEDTAVYYCATPGIYYEMDYWGQGTQVTVSS” the “polyreactivity (PSR sort gate)” value was “low polyreactivity”.
With “QVQLVESGGGLVQAGGSLRLSCAASGSIIPYYVMGWYRQAPGKERELVAAITSGGSTYYADSVKGRFTISRDNAKNTVYLQMNSLKPEDTAVYYCAVRWYPLYAPYWRDYWGQGTQVTVSS” the “polyreactivity (PSR sort gate)” value was “high polyreactivity”.

— the nanobody polyreactivity screen of Harvey et al. (2022)
